Broadly, the Km is the concentration of substrate that gives half-maximal velocity.

Common to all, as to assay: Substrate-dependent NADPH consumption assay at 340 nm, purified enzyme (in vitro)
Common to all, as to assay type: biochemical, Bacillus megaterium
Holding throughout (conditions): other: purified enzyme, NADPH 130-150 μM, 20° C., pH 8.0

Substrate in series [1]: CCCCC/C=C\C/C=C\C/C=C\C/C=C\CCCC(=O)O
The procedure: (§1) NADPH consumption was followed at 340 nm using a Δε340=6.22 mM^−1·cm^−1. Both assays were performed at 20° C. using P450 BM3 in 100 mM potassium phosphate buffer, pH 8.0. Reaction was initiated by addition to the substrate bound enzyme of NADPH to a final concentration of 130-150 μM. In the kinetics assay the rate constant kcat was calculated from the linear part of the decrease in A340 with time, which lasted at least for the first 4 sec. The enzyme concentration typically varied between 0.4 and 0.8 μM in the binding assay and between 8 and 25 nM in the catalytic assay. Substrate stock solutions were freshly prepared the day of the assay. Fatty acid stock solutions were in 50 mM potassium carbonate, SDS was easily dissolved in water, while TCE stock solutions were prepared in ethanol. If appropriate, stocks of candidate agents may be prepared in, for example, N,N-dimethylformamide just before the assay. […] The confidence interval for Kd given in the results section is the mean±the standard deviation of at least four measurements, as calculated using the software Kaleidagraph. Similarly kcat was calculated by fitting data points to the Michaelis-Menten equation. Each data point is the mean of at least four measurements.

Substrate in series [2]: CCCCCCCCCCCC(=O)O
The procedure: as §1

Substrate in series [3]: CCCCCCCCCCCCOS(=O)(=O)[O-].[Na+]
The procedure: as §1

Substrate in series [4]: ClC(Cl)C(Cl)Cl
The procedure:
as §1

B1: cytochrome P450 BM3 (Priestia megaterium NBRC 15308 = ATCC 14581) (protein)
chain: MTIKEMPQPKTFGELKNLPLLNTDKPVQALMKIADELGEIFKFEAPGRVTRYLSSQRLIKEACDESRFDKNLSQALKFVRDFAGDGLFTSWTHEKNWKKAHNILLPSFSQQAMKGYHAMMVDIAVQLVQKWERLNADEHIEVPEDMTRLTLDTIGLCGFNYRFNSFYRDQPHPFITSMVRALDEAMNKLQRANPDDPAYDENKRQFQEDIKVMNDLVDKIIADRKASGEQSDDLLTHMLNGKDPETGEPLDDENIRYQIITFLIAGHETTSGLLSFALYFLVKNPHVLQKAAEEAARVLVDPVPSYKQVKQLKYVGMVLNEALRLWPTAPAFSLYAKEDTVLGGEYPLEKGDELMVLIPQLHRDKTIWGDDVEEFRPERFENPSAIPQHAFKPFGNGQRACIGQQFALHEATLVLGMMLKHFDFEDHTNYELDIKETLTLKPEGFVVKAKSKKIPLGGIPSPSTEQSAKKVRKKAENAHNTPLLVLYGSNMGTAEGTARDLADIAMSKGFAPQVATLDSHAGNLPREGAVLIVTASYNGHPPDNAKQFVDWLDQASADEVKGVRYSVFGCGDKNWATTYQKVPAFIDETLAAKGAENIADRGEADASDDFEGTYEEWREHMWSDVAAYFNLDIENSEDNKSTLSLQFVDSAADMPLAKMHGAFSTNVVASKELQQPGSARSTRHLEIELPKEASYQEGDHLGVIPRNYEGIVNRVTARFGLDASQQIRLEAEEEKLAHLPLAKTVSVEELLQYVELQDPVTRTQLRAMAAKTVCPPHKVELEALLEKQAYKEQVLAKRLTMLELLEKYPACEMKFSEFIALLPSIRPRYYSISSSPRVDEKQASITVSVVSGEAWSGYGEYKGIASNYLAELQEGDTITCFISTPQSEFTLPKDPETPLIMVGPGTGVAPFRGFVQARKQLKEQGQSLGEAHLYFGCRSPHEDYLYQEELENAQSEGIITLHTAFSRMPNQPKTYVQHVMEQDGKKLIELLDQGAHFYICGDGSQMAPAVEATLMKSYADVHQVSEADARLWLQQLEEKGRYAKDVWAG
notes: expressed in transfected cells; host or cells: E. coli BL21(DE3) transformed with pT7Bm3Z
For the protein B1, the Km in series [1] is 0.37 ± 0.07 µM; in series [2], 67.8 ± 14.5 µM; in series [3], 0.51 ± 0.12 µM; in series [4], 7.96 ± 2.041 mM. The kcat is 3570 ± 88 mole NADPH/min/mole P450 in series [1], 1928 ± 114 mole NADPH/min/mole P450 in series [2], 2605 ± 61 mole NADPH/min/mole P450 in series [3] and 5133.5 ± 641.3 mole NADPH/min/mole P450 in series [4].

These data come from patent US6927039B2, “Enzymatic process” (Nanobiodesign Limited, priority 2000, dated 2005).
